In paper doi:10.1101/2022.10.14.512051 (bioRxiv, 2022):

Tests used:
His-DDB1 (recombinant) = His-DDB1 (recombinant) (human, UniProt Q16531 1-1140); experiment: fluorescence polarisation
[1] = biological target: CRL4A complex (CUL4A, DDB1, RBX1) (human | , UniProt Q13619 1-759; Q16531 1-1140; P62877 1-108); experiment: fluorescence polarisation
CRL4A complex (CUL4A, DDB1, RBX1), sequence (Q13619 whole entry, chain 1 of 3): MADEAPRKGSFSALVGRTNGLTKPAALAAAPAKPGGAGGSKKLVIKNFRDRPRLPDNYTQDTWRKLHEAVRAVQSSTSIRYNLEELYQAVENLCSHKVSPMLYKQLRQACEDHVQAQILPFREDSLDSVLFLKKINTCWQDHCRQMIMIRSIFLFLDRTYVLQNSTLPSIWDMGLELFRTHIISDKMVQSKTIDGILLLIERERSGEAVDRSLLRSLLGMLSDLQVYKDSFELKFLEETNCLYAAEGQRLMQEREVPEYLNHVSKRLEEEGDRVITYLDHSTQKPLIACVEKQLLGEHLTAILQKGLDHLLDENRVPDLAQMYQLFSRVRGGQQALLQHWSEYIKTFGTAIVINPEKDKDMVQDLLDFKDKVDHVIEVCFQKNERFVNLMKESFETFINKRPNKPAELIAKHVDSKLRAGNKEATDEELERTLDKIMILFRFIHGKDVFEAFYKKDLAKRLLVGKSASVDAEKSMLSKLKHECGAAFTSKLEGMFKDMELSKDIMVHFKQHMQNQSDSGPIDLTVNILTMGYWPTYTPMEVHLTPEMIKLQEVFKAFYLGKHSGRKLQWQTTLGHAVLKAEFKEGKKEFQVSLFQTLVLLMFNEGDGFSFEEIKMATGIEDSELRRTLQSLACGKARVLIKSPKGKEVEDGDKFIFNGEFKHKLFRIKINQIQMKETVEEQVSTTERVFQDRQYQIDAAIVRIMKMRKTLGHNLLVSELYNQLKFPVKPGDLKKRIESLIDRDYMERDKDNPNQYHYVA
CRL4A complex (CUL4A, DDB1, RBX1), sequence (Q16531 whole entry, chain 2 of 3): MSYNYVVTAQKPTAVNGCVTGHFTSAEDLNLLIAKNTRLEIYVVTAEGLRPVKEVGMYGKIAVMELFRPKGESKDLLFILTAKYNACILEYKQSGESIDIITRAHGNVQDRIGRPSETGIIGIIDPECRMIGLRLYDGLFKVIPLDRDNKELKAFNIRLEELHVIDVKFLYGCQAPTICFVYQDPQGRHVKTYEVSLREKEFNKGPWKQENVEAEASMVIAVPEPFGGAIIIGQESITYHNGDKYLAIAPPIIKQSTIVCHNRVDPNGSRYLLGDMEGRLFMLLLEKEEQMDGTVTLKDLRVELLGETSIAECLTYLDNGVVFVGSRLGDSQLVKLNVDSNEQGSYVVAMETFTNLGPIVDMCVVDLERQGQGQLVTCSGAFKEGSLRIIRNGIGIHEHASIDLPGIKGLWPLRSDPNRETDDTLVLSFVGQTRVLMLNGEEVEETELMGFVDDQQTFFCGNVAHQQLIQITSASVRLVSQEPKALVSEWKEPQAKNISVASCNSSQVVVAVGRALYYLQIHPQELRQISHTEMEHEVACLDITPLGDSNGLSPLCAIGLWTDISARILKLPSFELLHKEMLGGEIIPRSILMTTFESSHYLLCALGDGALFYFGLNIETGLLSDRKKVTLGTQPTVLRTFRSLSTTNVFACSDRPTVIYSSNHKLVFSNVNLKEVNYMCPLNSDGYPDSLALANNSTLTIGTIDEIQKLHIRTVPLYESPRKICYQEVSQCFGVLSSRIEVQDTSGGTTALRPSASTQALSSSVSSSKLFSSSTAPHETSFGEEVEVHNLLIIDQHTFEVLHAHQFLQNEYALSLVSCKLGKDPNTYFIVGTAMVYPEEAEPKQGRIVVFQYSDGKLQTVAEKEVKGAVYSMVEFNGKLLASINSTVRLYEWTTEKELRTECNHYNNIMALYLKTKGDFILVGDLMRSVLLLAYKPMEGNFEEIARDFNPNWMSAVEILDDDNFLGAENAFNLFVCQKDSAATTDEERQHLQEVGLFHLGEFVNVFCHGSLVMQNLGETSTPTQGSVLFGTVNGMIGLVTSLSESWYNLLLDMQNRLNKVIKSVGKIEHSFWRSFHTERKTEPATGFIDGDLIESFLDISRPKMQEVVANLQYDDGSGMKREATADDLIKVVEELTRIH
CRL4A complex (CUL4A, DDB1, RBX1), sequence (P62877 whole entry, chain 3 of 3): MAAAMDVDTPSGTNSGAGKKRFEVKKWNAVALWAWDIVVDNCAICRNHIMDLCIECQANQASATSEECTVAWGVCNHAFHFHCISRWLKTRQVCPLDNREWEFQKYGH

His-DDB1 (recombinant), sequence (Q16531 whole entry): as the sequence (Q16531 whole entry, chain 2 of 3) above

Binder | Kd (His-DDB1 (recombinant)) [µM] | Kd [1] [µM]
Alexa-labeled LIS1 (biotinylated StrepII-Avi-LIS1 with Alexa488-coupled streptavidin) (natural protein, human, UniProt P43034 1-410, looked up, biotin on the Avi tag) MVLSQRQRDELNRAIADYLRSNGYEEAYSVFKKEAELDVNEELDKKYAGLLEKKWTSVIRLQKKVMELESKLNEAKEEFTSGGPLGQKRDPKEWIPRPPEKYALSGHRSPVTRVIFHPVFSVMVSASEDATIKVWDYETGDFERTLKGHTDSVQDISFDHSGKLLASCSADMTIKLWDFQGFECIRTMHGHDHNVSSVAIMPNGDHIVSASRDKTIKMWEVQTGYCVKTFTGHREWVRMVRPNQDGTLIASCSNDQTVRVWVVATKECKAELREHEHVVECISWAPESSYSSISEATGSETKKSGKPGPFLLSGSRDKTIKMWDVSTGMCLMTLVGHDNWVRGVLFHSGGKFILSCADDKTLRVWDYKNKRCMKTLNAHEHFVTSLDFHKTAPYVVTGSVDQTVKVWECR | ~5 | ~13
Alexa-labeled WDR1 (biotinylated StrepII-Avi-WDR1 with Alexa488-coupled streptavidin) (natural protein, human, UniProt O75083 1-606, looked up, biotin on the Avi tag) MPYEIKKVFASLPQVERGVSKIIGGDPKGNNFLYTNGKCVILRNIDNPALADIYTEHAHQVVVAKYAPSGFYIASGDVSGKLRIWDTTQKEHLLKYEYQPFAGKIKDIAWTEDSKRIAVVGEGREKFGAVFLWDSGSSVGEITGHNKVINSVDIKQSRPYRLATGSDDNCAAFFEGPPFKFKFTIGDHSRFVNCVRFSPDGNRFATASADGQIYIYDGKTGEKVCALGGSKAHDGGIYAISWSPDSTHLLSASGDKTSKIWDVSVNSVVSTFPMGSTVLDQQLGCLWQKDHLLSVSLSGYINYLDRNNPSKPLHVIKGHSKSIQCLTVHKNGGKSYIYSGSHDGHINYWDSETGENDSFAGKGHTNQVSRMTVDESGQLISCSMDDTVRYTSLMLRDYSGQGVVKLDVQPKCVAVGPGGYAVVVCIGQIVLLKDQRKCFSIDNPGYEPEVVAVHPGGDTVAIGGVDGNVRLYSILGTTLKDEGKLLEAKGPVTDVAYSHDGAFLAVCDASKVVTVFSVADGYSENNVFYGHHAKIVCLAWSPDNEHFASGGMDMMVYVWTLSDPETRVKIQDAHRLHHVSSLAWLDEHTLVTTSHDASVKEWTITY | ~5 | ~13
